Reference: publication doi:10.1101/2025.03.09.642192 (2025)

How the values were obtained:
[1] = target: T1, purified hexon protein from ChAdOx1 (chimpanzee adenovirus Y25 (ChAdOx1)); assay: SPR
T1 chain: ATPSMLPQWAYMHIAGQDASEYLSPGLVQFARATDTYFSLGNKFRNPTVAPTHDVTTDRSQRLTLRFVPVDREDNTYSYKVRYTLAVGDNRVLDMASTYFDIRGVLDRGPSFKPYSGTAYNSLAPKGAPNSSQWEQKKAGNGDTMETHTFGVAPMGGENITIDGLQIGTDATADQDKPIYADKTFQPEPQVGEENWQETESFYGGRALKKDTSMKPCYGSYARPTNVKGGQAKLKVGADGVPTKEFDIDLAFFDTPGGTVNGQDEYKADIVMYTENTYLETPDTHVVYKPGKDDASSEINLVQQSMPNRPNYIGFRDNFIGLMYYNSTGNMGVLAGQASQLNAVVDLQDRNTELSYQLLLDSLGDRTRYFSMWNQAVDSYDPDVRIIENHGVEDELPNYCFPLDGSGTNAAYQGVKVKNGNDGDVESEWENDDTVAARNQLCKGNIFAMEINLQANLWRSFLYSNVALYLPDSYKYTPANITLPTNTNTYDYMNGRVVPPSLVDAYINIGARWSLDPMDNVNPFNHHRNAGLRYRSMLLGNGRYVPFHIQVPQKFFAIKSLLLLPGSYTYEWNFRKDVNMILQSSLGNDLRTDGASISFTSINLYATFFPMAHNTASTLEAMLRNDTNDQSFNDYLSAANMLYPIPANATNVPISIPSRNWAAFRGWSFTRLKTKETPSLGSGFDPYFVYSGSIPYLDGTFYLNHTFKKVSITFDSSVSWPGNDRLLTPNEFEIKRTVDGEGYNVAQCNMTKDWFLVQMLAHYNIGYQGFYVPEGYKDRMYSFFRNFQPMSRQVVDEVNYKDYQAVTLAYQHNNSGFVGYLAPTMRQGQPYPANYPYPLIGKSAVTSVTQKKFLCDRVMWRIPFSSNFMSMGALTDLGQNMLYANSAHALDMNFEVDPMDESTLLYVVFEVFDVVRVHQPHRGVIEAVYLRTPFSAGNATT

HAdV-C5 hexon protein = target: T2, HAdV-C5 hexon protein (HAdV-C5, UniProt P04133 1-952); assay: SPR
T2 chain: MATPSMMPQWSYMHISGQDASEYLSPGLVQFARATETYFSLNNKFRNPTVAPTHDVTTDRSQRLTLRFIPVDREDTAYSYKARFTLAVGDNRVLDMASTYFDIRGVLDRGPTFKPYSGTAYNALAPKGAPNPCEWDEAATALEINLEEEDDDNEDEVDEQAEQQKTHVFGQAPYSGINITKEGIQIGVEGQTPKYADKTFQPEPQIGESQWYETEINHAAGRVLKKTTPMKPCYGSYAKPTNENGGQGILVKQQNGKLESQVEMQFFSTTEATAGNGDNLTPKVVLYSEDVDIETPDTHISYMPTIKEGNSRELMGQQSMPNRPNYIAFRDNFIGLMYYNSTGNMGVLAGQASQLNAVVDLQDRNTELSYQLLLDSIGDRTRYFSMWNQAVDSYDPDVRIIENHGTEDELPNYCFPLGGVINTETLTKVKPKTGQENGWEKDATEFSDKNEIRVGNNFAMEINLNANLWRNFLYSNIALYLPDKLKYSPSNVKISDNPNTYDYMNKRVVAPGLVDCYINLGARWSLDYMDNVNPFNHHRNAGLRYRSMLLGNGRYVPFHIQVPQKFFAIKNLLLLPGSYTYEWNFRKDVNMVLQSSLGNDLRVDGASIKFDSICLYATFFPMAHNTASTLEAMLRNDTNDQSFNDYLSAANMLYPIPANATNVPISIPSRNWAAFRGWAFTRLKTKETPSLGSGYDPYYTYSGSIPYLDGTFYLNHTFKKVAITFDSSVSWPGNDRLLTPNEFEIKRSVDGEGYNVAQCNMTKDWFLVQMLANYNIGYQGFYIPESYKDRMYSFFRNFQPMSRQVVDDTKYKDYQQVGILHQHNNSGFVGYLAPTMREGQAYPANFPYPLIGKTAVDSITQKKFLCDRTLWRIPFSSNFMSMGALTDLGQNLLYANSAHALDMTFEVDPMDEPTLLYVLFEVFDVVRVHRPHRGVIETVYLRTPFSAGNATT

B1: platelet factor 4 (PF4) (natural protein)
chain: EAEEDGDLQCLCVKTTSQVRPRHITSLEVIKAGPHCPTAQLIATLKNGRKICLDLQAPLYKKIIKKLLES
- koff [1]: 0.0106 s⁻¹
- koff (HAdV-C5 hexon protein): 0.0213 s⁻¹
